Results reported in patent publication US20240228660A1 (IP2IPO INNOVATIONS, published 2024).
Residue numbers refer to the chain shown, from its start. Where two headings read alike, the source gives them in different places. One block for each binder: values may come before it.

Experiments:
[1] = target: T1, human full-length VWF (human, UniProt P04275 764-2813); assay: SPR, Biacore T200, antibody captured on Protein A, full-length VWF as analyte, single-cycle kinetics
Description: (§1) Antibodies were captured on Protein A sensor chip. The system was purged using running buffer (10 mM HEPES pH 7.4, 300 mM NaCl, 3 mM EDTA, 0.05% P20) and a series S Protein A chip was docked in the Biacore T200. The surface was conditioned with 10 mM glycine-HCl pH 1.5 regeneration solution (3 injections). Each antibody was diluted to ˜0.8 μg/ml in running buffer to capture ˜350 RU on flow cells 2, 3 and 4 (flow cell 1 used as in-line reference cell). Single-cycle kinetic analysis of human full-length VWF binding to antibodies was performed using the following parameters:

[2] = target: T1, human full-length VWF; assay: as above; remark: listed apart in the source
Description: as §1

[3] = target: T1, human full-length VWF; assay: as above; remark: listed apart in the source
Description: as §1

[4] = target: T1, human full-length VWF; assay: SPR Biacore T200, antibody captured on Protein A chip, full-length VWF as analyte, single-cycle kinetics
Description: as §1

B1: 1-D5_H2_VL-par (antibody, human IgG1, kappa, V domains shown)
VH: QQQLVESGGGVVQPGRSLRLSCAASGFSLNNYIMGWVRQAPGKGLEYIGIISTGGSTYYASWAKGRFTISRDSNTMYLQMNSLRAEDTATYFCARGGSSAGAGFNIWGQGTLVTVSS
VL: DIVMTQTPSSVSAAVGDTVTIQCQASQSINSGLAWYQQKPGQPPKRLIYKASTLASGVPSRFRGSGSGTDFTLTISDLECADAATYYCQSYHYISANGATFGGGTEVVVET
notes: also called 1-D5_H2 (hIgG1)
Kd [1]: 31.2 pM | koff [1]: 4.2e-06 s⁻¹ | kon [1]: 135000 M⁻¹ s⁻¹

B2: 1-D5_H1_VL-par (antibody, human IgG1, kappa, V domains shown)
VH: QVQLVESGGGVVQPGRSLRLSCAASGFSLNNYIMGWVRQAPGKGLEWVAIISTGGSTYYASWAKGRFTISRDNSKNTLYLQMNSLRAEDTAVYYCARGGSSAGAGFNIWGQGTLVTVSS
VL: B1 VL
notes: also called 1-D5_H1 (hIgG1)
Kd [1]: 0.304 pM | koff [1]: 2.37e-08 s⁻¹ | kon [1]: 78000 M⁻¹ s⁻¹

B3: 1-D5_H0_VL-par (antibody, human IgG1, kappa, V domains shown)
VH: B2 VH with S28T, L29F, N30S
VL: B1 VL
notes: also called 1-D5_H0 (hIgG1)
Kd [1]: 0.031 pM | koff [1]: 2.38e-09 s⁻¹ | kon [1]: 77000 M⁻¹ s⁻¹

B4: 4-H3_H1_VL-par (antibody, human IgG1, kappa)
heavy chain: not shown
light chain: AYDMTQTPPSLSASVGETVRIRCLASEDIASGISWYQQKPGKPPTLLIYGASNLESGVPPRFSGSGSGTDYTLTIGGVQAEDAATYYCLGGYSFSSNGLTFGAGTKVEIKTVAAPSVFIFPPSDEQLKSGTASVVCLLNNFYPREAKVQWKVDNALQSGNSQESVTEQDSKDSTYSLSSTLTLSKADYEKHKVYACEVTHQGLSSPVTKSFNRGEC
notes: also called 4-H3_H1 (hIgG1)
Kd [1]: 6.64 pM | koff [1]: 1.87e-07 s⁻¹ | kon [1]: 28200 M⁻¹ s⁻¹

B12: 3-H9_H1_VL-par (antibody, human IgG1, kappa, V domains shown)
VH: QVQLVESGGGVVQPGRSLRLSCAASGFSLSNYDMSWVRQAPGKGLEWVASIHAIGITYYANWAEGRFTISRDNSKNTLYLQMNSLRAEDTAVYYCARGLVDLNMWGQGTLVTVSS
VL: AIKMTQTPSSVSVAVGGTVTINCQSSQSVYSNNLLSWYQQKPGQPPKLLIYDASTLESGVPSRFKGSGSGTQFTLTISGVQCEDAATYYCQGSYYSSGWYNTFGGGTEVVVET
notes: also called 3-H9_H1 (hIgG1)
Kd [3]: 3.13 pM | koff [3]: 7.18e-08 s⁻¹ | kon [3]: 22900 M⁻¹ s⁻¹

B15: 1-D5_VH-par_VL-par (antibody, human IgG1, kappa)
heavy chain: not shown
light chain: DIVMTQTPSSVSAAVGDTVTIQCQASQSINSGLAWYQQKPGQPPKRLIYKASTLASGVPSRFRGSGSGTDFTLTISDLECADAATYYCQSYHYISANGATFGGGTEVVVETVAAPSVFIFPPSDEQLKSGTASVVCLLNNFYPREAKVQWKVDNALQSGNSQESVTEQDSKDSTYSLSSTLTLSKADYEKHKVYACEVTHQGLSSPVTKSFNRGEC
notes: also called 1-D5_parental (hIgG1)
Kd [1]: 22.3 pM

B17: 1-G5_VH-par_L1 (antibody, human IgG1, kappa)
heavy chain: not shown
light chain: DPQMTQSPSSLSASVGDRVTITCQASQSVYNNNYLSWYQQKPGKAPKLLIYDASTLASGVPSRFSGSGSGTDFTLTISSLQPEDFATYYCQGSYYSGGWDTAFGGGTKVEIKTVAAPSVFIFPPSDEQLKSGTASVVCLLNNFYPREAKVQWKVDNALQSGNSQESVTEQDSKDSTYSLSSTLTLSKADYEKHKVYACEVTHQGLSSPVTKSFNRGEC
notes: also called 1-G5_L1 (hIgG1K)
Kd [3]: 12 pM | koff [3]: 1.28e-06 s⁻¹ | kon [3]: 107000 M⁻¹ s⁻¹

B20: 1-G5_H1_VL-par (antibody, human IgG1, kappa, V domains shown)
VH: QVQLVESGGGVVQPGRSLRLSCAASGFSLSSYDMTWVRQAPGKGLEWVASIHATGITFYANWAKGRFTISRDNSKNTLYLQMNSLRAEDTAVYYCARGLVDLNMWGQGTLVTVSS
VL: DPVMTQTASSVSAAVGGTVTINCQASQSVYNNNYLSWYQQKPGQPPKLLIYDASTLASGVPSRFSGNGSGTQFTLTISGVQCDDAATYYCQGSYYSGGWDTAFGGGTKVVVKT
notes: also called 1-G5_H1 (hIgG1)
Kd [3]: 6.77 pM | koff [3]: 1.66e-07 s⁻¹ | kon [3]: 24600 M⁻¹ s⁻¹

B21: 1-G5_H0_VL-par rep (antibody, human IgG1, kappa, V domains shown)
VH: QVQLVESGGGVVQPGRSLRLSCAASGFTFSSYDMTWVRQAPGKGLEWVASIHATGITFYANWAKGRFTISRDNSKNTLYLQMNSLRAEDTAVYYCARGLVDLNMWGQGTLVTVSS
VL: B20 VL
notes: also called 1-G5_H0 (hIgG1)
Kd [3]: 8.52 pM | koff [3]: 7.2e-07 s⁻¹ | kon [3]: 84500 M⁻¹ s⁻¹

B23: 1-D5_VH-par_L1 (antibody, human IgG1, kappa, V domains shown)
VH: QQQLVESGGRLVTPGTPLTLTCAVSGFSLNNYIMGWVRQAPGKGLEYIGIISTGGSTYYASWAKGRFTISRTSTTMDLKMTSLTTEDTATYFCARGGSSAGAGFNIWGPGTLVTVSS
VL: DIQMTQSPSSLSASVGDRVTITCQASQSINSGLAWYQQKPGKAPKRLIYKASTLASGVPSRFSGSGSGTDFTLTISSLQPEDFATYYCQSYHYISANGATFGGGTKVEIKT
notes: also called 1-D5_L1 (hIgG1K)
Kd [1]: 82.4 pM | koff [1]: 7.91e-06 s⁻¹ | kon [1]: 96000 M⁻¹ s⁻¹

B24: 1-D5_VH-par_L0 (antibody, human IgG1, kappa, V domains shown)
VH: B23 VH
VL: B23 VL with R46L
notes: also called 1-D5_L0 (hIgG1K)
Kd [1]: 50 pM | koff [1]: 6.59e-06 s⁻¹ | kon [1]: 132000 M⁻¹ s⁻¹

Results, then the binder that gave them:

Kd [1]: 19.4 pM | koff [1]: 1.75e-06 s⁻¹ | kon [1]: 90000 M⁻¹ s⁻¹
B5: 4-H3_H2_VL-par (antibody, human IgG1, kappa)
heavy chain: not shown
light chain: B4 light chain
notes: also called 4-H3_H2 (hIgG1)

Kd [2]: 16.1 pM | koff [2]: 4.34e-07 s⁻¹ | kon [2]: 26900 M⁻¹ s⁻¹
B6: 4-H3_H5_VL-par (antibody, human IgG1, kappa)
heavy chain: not shown
light chain: B4 light chain
notes: also called 4-H3_H5 (hIgG1)

Kd [1]: 13.1 pM | koff [1]: 2.89e-07 s⁻¹ | kon [1]: 22100 M⁻¹ s⁻¹
B7: 4-H3_H0_VL-par (antibody, human IgG1, kappa, V domains shown)
VH: QVQLVESGGGVVQPGRSLRLSCAASGFTFSSNAMNWVRQAPGKGLEWVAGIYGHDTSYYAAWAKGRFTISRDNSKNTLYLQMNSLRAEDTAVYYCARGFIYFDIWGQGTLVTVSS
VL: AYDMTQTPPSLSASVGETVRIRCLASEDIASGISWYQQKPGKPPTLLIYGASNLESGVPPRFSGSGSGTDYTLTIGGVQAEDAATYYCLGGYSFSSNGLTFGAGTKVEIKT
notes: also called 4-H3_H0 (hIgG1)

Kd [1]: 29.4 pM | koff [1]: 1.59e-06 s⁻¹ | kon [1]: 54200 M⁻¹ s⁻¹
B8: 4-H3_H3_VL-par (antibody, human IgG1, kappa, V domains shown)
VH: B7 VH with F27I, T28D, F29L, S30T, V48I, A49G, L78V
VL: B7 VL
notes: also called 4-H3_H3 (hIgG1)

Kd [1]: 43.4 pM
B9: 3-H9_VH-par_VL-par (antibody, human IgG1, kappa)
heavy chain: not shown
light chain: AIKMTQTPSSVSVAVGGTVTINCQSSQSVYSNNLLSWYQQKPGQPPKLLIYDASTLESGVPSRFKGSGSGTQFTLTISGVQCEDAATYYCQGSYYSSGWYNTFGGGTEVVVETVAAPSVFIFPPSDEQLKSGTASVVCLLNNFYPREAKVQWKVDNALQSGNSQESVTEQDSKDSTYSLSSTLTLSKADYEKHKVYACEVTHQGLSSPVTKSFNRGEC
notes: also called 3-H9_parental (hIgG1)

Kd [3]: 12.4 pM | koff [3]: 1.14e-06 s⁻¹ | kon [3]: 92000 M⁻¹ s⁻¹
B10: 3-H9_H2_VL-par (antibody, human IgG1, kappa, V domains shown)
VH: QQLVESGGGVVQPGRSLRLSCAASGFSLSNYDMSWVRQAPGKGLEWIGSIHAIGITYYANWAEGRFTISRDKNTVYLQMNSLRAEDTATYFCARGLVDLNMWGQGTLVTVSS
VL: B12 VL
notes: also called 3-H9_H2 (hIgG1)

Kd [3]: 14.4 pM | koff [3]: 3.78e-07 s⁻¹ | kon [3]: 26200 M⁻¹ s⁻¹
B11: 1-G5_H2_VL-par (antibody, human IgG1, kappa, V domains shown)
VH: B10 VH with N30S, S34T, I53T, Y57F, E63K, I68T, R70K, K72S
VL: B20 VL
notes: also called 1-G5_H2 (hIgG1)

Kd [3]: 4.09 pM | koff [3]: 3.59e-07 s⁻¹ | kon [3]: 87700 M⁻¹ s⁻¹
B13: 3-H9_H0_VL-par (antibody, human IgG1, kappa, V domains shown)
VH: B21 VH with S31N, T35S, T54I, F58Y, K64E
VL: B12 VL
notes: also called 3-H9_H0 (hIgG1)

Kd [3]: 0.475 pM
B14: 1-G5_VH-par_VL-par (antibody, human IgG1, kappa)
heavy chain: not shown
light chain: DPVMTQTASSVSAAVGGTVTINCQASQSVYNNNYLSWYQQKPGQPPKLLIYDASTLASGVPSRFSGNGSGTQFTLTISGVQCDDAATYYCQGSYYSGGWDTAFGGGTKVVVKTVAAPSVFIFPPSDEQLKSGTASVVCLLNNFYPREAKVQWKVDNALQSGNSQESVTEQDSKDSTYSLSSTLTLSKADYEKHKVYACEVTHQGLSSPVTKSFNRGEC
notes: also called 1-G5_parental (hIgG1)

Kd [3]: 111 pM | koff [3]: 2.12e-05 s⁻¹ | kon [3]: 192000 M⁻¹ s⁻¹
B16: 3-H9_VH-par_L0 (antibody, human IgG1, kappa, V domains shown)
VH: SQSLEESGGRLVTPGTPLTLTCSVSGFSLSNYDMSWVRQAPGKGLEWIGSIHAIGITYYANWAEGRFTISKTSTTVDLKMTSLTTEDTATYFCARGLVDLNMWGPGTLVTVSS
VL: DIQMTQSPSSLSASVGDRVTITCQSSQSVYSNNLLSWYQQKPGKAPKLLIYDASTLESGVPSRFSGSGSGTDFTLTISSLQPEDFATYYCQGSYYSSGWYNTFGGGTKVEIKT
notes: also called 3-H9_L0 (hIgG1K)

Kd [4]: < 1000 pM
B18: 1-G5_H1_L0 (antibody, human IgG1, kappa)
heavy: not shown
light: B17 light chain with P2I
notes: humanised, human IgG1 kappa

Kd [3]: 3.58 pM | koff [3]: 3.8e-07 s⁻¹ | kon [3]: 106000 M⁻¹ s⁻¹
B19: 1-G5_VH-par_L0 (antibody, human IgG1, kappa)
heavy chain: not shown
light chain: B17 light chain with P2I
notes: also called 1-G5_L0 (hIgG1K)

Kd [4]: < 1000 pM
B22: 4-H3_H0_L0 (antibody, human IgG1, kappa, V domains shown)
VH: B7 VH
VL: DIQMTQSPSSLSASVGDRVTITCLASEDIASGISWYQQKPGKAPKLLIYGASNLESGVPSRFSGSGSGTDFTLTISSLQPEDFATYYCLGGYSFSSNGLTFGGGTKVEIKT
notes: humanised, human IgG1 kappa
